Data reported in patent US8298545B2, “Anti-autoimmune antibodies for treatment of pemphigus” (The Trustees of the University of Pennsylvania, priority 2007, dated 2012).

System: primary human epidermal keratinocytes
Test: Keratinocyte dissociation (dispase) assay
Type: cell-based
Conditions: FIG. 5M-5O
Protocol: The keratinocyte dissociation assay was performed as previously described (Payne et al., 2005), using either PV scFv at 5 μg/mL or PV sera at dilutions of 1:5 to 1:7.5 in 500 μL total volume defined keratinocyte-serum free media (Gibco/Invitrogen). For antibodies that only recognize Dsg3, 1 μg/mL exfoliative toxin A (ETA) was added to wells for the last two hours. For antisera depletion assays, 200 μL of PV sera flowthrough (representing a volume of 100 μL, sera, combined with the first 1-volume fraction of the PBS wash) were incubated with cells in a total volume of 500 μL, with or without ETA treatment. Dissociation assays used the total eluate from the antisera columns, concentrated to a volume of 100 μl (representing a starting volume of 250 μL sera).
The question of whether the in vitro inhibition of Dsg binding by ELISA translated into a functional block of antibody pathogenicity was investigated. It was previously shown that neonatal mouse injection is suboptimal for evaluation of pathogenicity of PV mAbs, due to differences in the specificity of mAbs for human versus mouse Dsg substrates. Therefore, the inhibition of mAb pathogenicity was evaluated by a dispase assay using cultured primary human keratinocytes. […]

B1: Exfoliative toxin A: exfoliative toxin A, inactivates Dsg1 (protein, UniProt P09331 39-280, looked up)
Exfoliative toxin A: EVSAEEIKKHEEKWNKYYGVNAFNLPKELFSKVDEKDRQKYPYNTIGNVFVKGQTSATGVLIGKNTVLTNRHIAKFANGDPSKVSFRPSINTDDNGNTETPYGEYEVKEILQEPFGAGVDLALIRLKPDQNGVSLGDKISPAKIGTSNDLKDGDKLELIGYPFDHKVNQMHRSEIELTTLSRGLRYYGFTVPGNSGSGIFNSNGELVGIHSSKVSHLDREHQINYGVGIGNYVKRIINEKNE
- pathogenicity in the keratinocyte dissociation (dispase) assay: do not demonstrate significant pathogenicity
